Results from the DeepSol protein solubility set.

Assay: soluble on expression in E. coli; label from the status in PepcDB or PDB records

| Sequence | soluble on expression in E. coli |
| --- | --- |
| MSDTANAAVEIGEEALEQKLEELSVQDKTTPSNSEEKMRKRRLPTAERIRLWEEEQKSKTAITTGLQGKVKWYSVLRRYGFISRNDGEKDIFVHQTAIAKSATEKFYLRTLGDDEEVLFDLVEGKNGPEAANVTGPNGDNVIGSRYRHKLLSRFRKNRKPRASVDGEESQSTDAKPQEMSADAEKKKPRKQRKNRNRKSKAQQKGAGDAADSSAVTESSESASDVASPDSKSCSKIITEEAGLSKVDRCDSALGEAGLGAQPIDAQI | soluble |
| MSDVAETVVAQEPEVVEPVEEKPTETGSDDVVVIDEKTSEQNGEKTEETQAEATEEKNETEAEEADKDKAVENGEAKDTNGNDRKRVSSAHEEAPVADAEEDAPLTKKSKVEDEVDVAASGDAPAVAAE | soluble |
| MSDVPDDANAGCPGTGSAGAGKASGCAGCPNQGSCATGQGPPPDADVPKIQDRFSRIKHKILILSGKGGVGKSTLTSNLARALASDPSKQVAILDVDICGPSQPRMMGVEDEEVHNSADGWTPVGIQPNLTLMSIAFLLGDKNDAVIWRGARKNGMIKQFLKDVDWGEVDYLLIDTPPGTSDEHISLVQFLLQAGPLDGALIVSTPQEVSLLDVRKEVSFCVKTKVPILGVVENMARFVCPNCAHTTLLFPTSTGGAEQMCKDSNLELLAQLPLEPALAKALDNGEDFFETNPDSTLAKSFLDLAEKVKAKLV | not soluble |
| MSDVSLKLSAKDIYEKDFEKTMARGYRREEVDAFLDDIIADYQKMADMNNEVVKLSEENHKLKKELEELRLRVATSRPQDNKSFSSNNTTTNTSSNNVDILKRISNLEKAVFGK | not soluble |
| MSEAKWLSLLGLAARARQLLTGEEQVVKAVQNGQVTLVILSSDAGIHTKKKLLDKCGSYQIPVKVVGNRQMLGRAIGKHERVVIGVKDAGFSRKLAALIDE | soluble |
| MSEEVWNGNQGILSVYVSKARDLPNLNKLDKQNVMLRLRIAHMTRASNTLHRAGQNPVFHYLEKFDITPEIKPLMYVEVYCDRRKKSPLPIGRCEIDLLNAIRADPKEGYCTWYELKRSGDEFAGTIFIELTFTPKVPRLNRDDLNKEMDRLDSSMAMRPIPPLPTESEYDYVHGSTMRQITPQCVSTSHEDKDEGQPYRNGNVFSMSSKSDTAVLANSNDPIILPPTFSASMGTTSTLETNDTAISNTSNTKFHFANLRKLKEKINIFKNPDSSTNNCQNESNKVDIEALQKAIGVTSLSYDEDDDDDDENDAFYSSSHRVSHNYNQPPLPPIPTRDDMSNYSSSRNTPLVRRDRPSRLDSSSPNSHPHPSGLNSPKLPPLPTTSNSNFNSRKNSMSPTRKRPPPRLS | soluble |
| MSEFWLISAPGDKENLQALERMNNVTSKSNLSHNTKFAIPDFKVGTLDSLVGLSDELGKLDTFAESLIKRMAQSVVEVMEDSKGKAHETLLANGVDLTSFVTHFEWDMAKYPAKQPLVSVVDTLAKQLAQIETDLKSRTAAYSVLKANLENLEKRSTGNLFTRTLSDIVSKEDFVLDSEYLITLLVIVPKSSFAQWQKTYESLSDMVVPRSTKLIAEDNEGGLFTVTLFRKVIEDFKVKAKENKFIVREFYYDEKEIKREREEMTRLLSDKKQQYPTSCVALKKGSATYRDHKVKVAPLGNPARPAAGQTDRDRESEGEGEGPLLRWLKVNFSEAFIAWIHIKALRVFVESVLRYGLPVNFQAVLLQPHKKSATKRLREVLNSVFRHLDEVAAASILDASVEIPGLQLSNQDYFPYVYFHIDLSLLD | soluble |
| MSEIAMHVTAKPSSFQCNLKCDYCFYLEKESQFTHEKWMDDSTLKEFIKQYIAASGNQVYFTWQGGEPTLAGLDFFRKVIHYQQRYAGQKRIFNALQTNGILLNNEWCAFLKEHEFLVGISIDGPQELHDRYRRSNSGNGTFAKVIAAIERLKSYQVEFNTLTVINNVNVHYPLEVYHFLKSIGSKHMQFIELLETGTPNIDFSGHSENTFRIIDFSVPPTAYGKFMSTIFMQWVKNDVGEIFIRQFESFVSRFLGNGHTSCIFQESCKDNLVVESNGDIYECDHFVYPQYKLGNINKSELKTMNSVQLTAQKKRISAKCQQCAYKPICNGGCPKHRITKVNDETVSYFCEGYKILFSTMVPYMNAMVELAKNRVPLYHIMDVAKQMENN | not soluble |
| MSEIIVYTQNDCPPCTFVKNYLNEHQIDFEERNINNQQYRNEMIDFDAFSTPFILLNGNPMYHVDLDEINKVLNIQD | not soluble |
| MSEIKLNYHKTHFLTSAPNIRSIPEDTGIEIAFAGRSNAGKSTALNALTNQKNLARTSKTPGRTQLINLFEVEPNCKLVDLPGYGYAAVPEQMKIQWQKSLGEYLQKRECLAGLVVLMDIRHPLKDLDQQMIEWAVSANLPVLLLLTKADKLSQSARSKQVKMVREAILPFQGDIQVEAFSAQNKIGIDKLAVKLDFWFSPLFAE | not soluble |
| MSEKEIWEKVLEIAQEKLSAVSYSTFLKDTELYTIKDGEAIVLSSIPFNANWLNQQYAEIIQAILFDVVGYEVKPHFITTEELANYSNNETATPKETTKPSTETTEDNHVLGREQFNAHNTFDTFVIGPGNRFPHAASLAVAEAPAKAYNPLFIYGGVGLGKTHLMHAIGHHVLDNNPDAKVIYTSSEKFTNEFIKSIRDNEGEAFRERYRNIDVLLIDDIQFIQNKVQTQEEFFYTFNELHQNNKQIVISSDRPPKEIAQLEDRLRSRFEWGLIVDITPPDYETRMAILQKKIEEEKLDIPPEALNYIANQIQSNIRELEGALTRLLAYSQLLGKPITTELTAEALKDIIQAPKSKKITIQDIQKIVGQYYNVRIEDFSAKKRTKSIAYPRQIAMYLSRELTDFSLPKIGEEFGGRDHTTVIHAHEKISKDLKEDPIFKQEVENLEKEIRNVLEHHHHHH | soluble |
| MSEKGFSGGCQCGAVRFHAGKLGRPSICHCRMCQKHFGNFFGALVTADQAHLAWTRGQPTLFRSSARIHRGFCNKCGTPLTYHYPGGVEIAIGAFDHPEQIEPQAQVNIHKRMPWIEQLFSKPAIEQSVDEAEITSYQHPDHDTATWPPEGP | not soluble |
| MSEKLQKVLARAGHGSRREIESIIEAGRVSVDGKIAKLGDRVEVTPGLKIRIDGHLISVRESAEQICRVLAYYKPEGELCTRNDPEGRPTVFDRLPKLRGARWIAVGRLDVNTCGLLLFTTDGELANRLMHPSREVEREYAVRVFGQVDDAKLRDLSRGVQLEDGPAAFKTIKFSGGEGINQWYNVTLTEGRNREVRRLWEAVGVQVSRLIRVRYGDIPLPKGLPRGGWTELDLAQTNYLRELVELPPETSSKVAVEKDRRRMKANQIRRAVKRHSQVSGGRRSGGRNNNGLEHHHHHH | not soluble |
| MSEKTMRVQDYPLATRCPEHILTPTGKPLTDITLEKVLSGEVGPQDVRISRQTLEYQAQIAEQMQRHAVARNFRRAAELIAIPDERILAIYNALRPFRSSQAELLAIADELEHTWHATVNAAFVRESAEVYQQRHKLRKGS | soluble |
| MSELMQAILDSEEKHDLRGFISELRQQDKNYLLRNDILNVYAEYCSKCQKPETSYKFSNLSKLIYYTQEIIQEDSNFCFIIRPKIAAQEVYRLTADLDVEPMTVQELLDLRDRLVNKFHPYEGDILELDFGPFYDYTPTIRDPKNIGKGVQYLNRYLSSKLFQDSQQWLESLFNFLRLHNYNGIQLLINHQIQSQQQLSQQVKNALNFVSDRPNDEPYEQFRLQLQTMGFEPGWGNTASRVRDTLNILDELIDSPDPQTLEAFISRIPMIFRIVLVSAHGWFGQEGVLGRPDTGGQVVYVLDQAKNLEKQLQEDAILAGLEVLNVQPKVIILTRLIPNSDGTLCNQRLEKVYGTENAWILRVPLREFNPKMTQNWISRFEFWPYLETFAIDSERELLAEFQGRPDLIVGNYTDGNLVAFLLTRRMKVTQCNIAHALEKSKYLFSNLYWQDLEEKYHFSLQFTADLIAMNAANFVISSTYQEIVGTPDSIGQYESYKCFTMPELYHVVNGIELFSPKFNVVPPGVNENSYFPYTQTQNRIESDRDRLEEMLFTLEHHHHHH | not soluble |
